The values that follow come from PMC7611554.

In the experiment the target is SNAP-LepR:EGFR complex (UniProt P48356). In words: FRET or BRET.

Usually Kd stands for the concentration at which binding is half-saturated. Low values mean a tighter complex, high ones a looser complex. In turn, EGF-d2 (ligand) came in with a Kd of 2.1 nM.
